Measured values taken from the Human Domainome abundance scans (Beltran et al. 2025).

B1: Pituitary-specific positive transcription factor 1, residues 130 to 198; numbered along this chain, P28069 (parent)
chain: RELEKFANEFKVRRIKLGYTQTNVGEALAAVHGSEFSQTTICRFENLQLSFKNACKLKAILSKWLEEAE

Variants of: B1
Assay: abundance fitness (aPCA) (normalised: wild type 0, dead -1); higher = more abundant; growth selection in yeast, the domain comes from the species named
Settings: Homo sapiens

Abundance fitness of substitutions, site by site:
T40: G -0.528 | N -0.71 | S -0.348 | E -0.193 | D 0.308 | I -0.642 | L -0.003 | H -0.403 | A -0.235 | M -0.431 | V -0.314 | Q -0.211 | C -0.512 | W -0.624 | F -0.911
E35: C -0.182 | P -0.381 | A -0.097 | V -0.306 | F -0.262 | D -0.144 | H -0.228 | L -0.222 | W -0.265 | N -0.165 | I -0.276 | Q -0.059 | G -0.086 | K -0.23 | S -0.051 | R -0.208 | M -0.162
Q21: Y -0.325
R43: N -0.085 | C -0.559 | Y -0.846 | P -0.855 | T -0.825 | M 0.234 | V -0.966 | G -0.388 | F -0.289 | D 0.112 | A 0.12 | I -0.888 | Q 0.11 | E 0.119 | L -0.181 | S -0.416
A29: W -0.932 | Y -0.609 | K -0.202 | R -0.127 | P -0.89 | S -0.119 | Q -0.112 | L -0.829 | H -0.079 | G -0.416 | F -0.509 | V -0.87 | I -0.492 | C -0.361 | M -0.402 | T 0.063 | N -0.595
F44: R -0.871 | A -0.958 | I -0.861 | M -0.89 | D -0.866 | Q -0.885 | T -1.06 | E -0.72 | Y -0.842 | L -0.76 | W -0.909 | H -0.565 | P -0.936 | G -1.03 | V -0.974 | N -1.11
A30: P -0.468 | H -0.357 | R 0.042 | V -0.444 | F -0.726 | I -0.309 | S -0.138 | D -0.457 | M -0.261 | L -0.217 | Y -0.633 | K -0.008 | N -0.219 | G -0.298 | E -0.128 | C -0.127 | T -0.23
G25: S 0.198 | W -0.001 | P -0.776 | R -0.813 | C 0.005 | T -0.325 | V 0.085 | F -0.285 | M -0.468 | N -0.911 | L -0.692 | K -0.797 | D -0.647 | Y 0.101 | I -0.184 | Q -0.171 | A 0.396
C42: Y -0.243 | H -0.001 | W -0.101 | F -0.348 | G -0.029 | T -0.02 | M 0.311 | A 0.21 | N 0.092 | D 0.325 | P -0.761 | R 0.142 | K 0.148 | V -0.336
T22: H 0.041 | M 0.08 | I -0.525 | W 0.18 | S 0.106 | Q 0.209 | P -0.573 | A 0.357 | G -0.052 | Y -0.392 | L -0.156 | N -0.063 | E 0.491 | V -0.328 | K 0.267 | C -0.108
L28: R -0.554 | Y -0.711 | C -0.889 | E -0.718 | S -0.732 | A -0.799 | N -0.863 | M -0.824 | T -0.226 | G -0.715 | D -0.162 | I -0.276 | P -0.853
I41: K -0.842 | T -0.892 | P -0.897 | V -0.523 | M -0.446 | L -0.541 | Q -0.785 | D -0.758 | S -0.866 | W -0.502 | N -0.88 | C -0.444 | G -0.976 | H -0.56
H32: Y 0.276
Q38: T 0.277
E26: W -0.493 | G -0.771 | A -0.332 | V -0.461 | F -0.849 | C -0.476 | H -0.486 | Q -0.527 | D 0.205 | N -0.083
F36: W -0.229 | M -0.31 | Q -0.517 | I 0.128 | A -0.496 | N -0.758 | L -0.393 | K -0.744 | G -1.05 | T -0.512 | H -0.747 | C -0.526 | P -0.702
V31: H -0.574 | N -0.389 | D -0.462 | R -0.053 | F -0.34 | Y -0.339 | L -0.058 | C -0.258 | M -0.135 | W -0.392 | P -0.912 | K 0.131 | Q -0.033 | S -0.004 | E -0.013 | G -0.404 | I 0.027 | T -0.021
S37: E -0.568 | F -0.901 | L -0.682 | Q -0.736 | D 0.199 | V -0.833 | A -0.607 | M -0.823 | W -0.925 | C -0.281 | N 0.117 | Y -0.508 | T -0.063 | H -0.689 | R -0.743 | P -0.544 | I -0.697
N23: M 0.392 | Y 0.008 | P -0.992 | Q 0.347 | R -0.053 | C -0.184 | H 0 | A 0.267 | F 0.145 | I -0.539 | L -0.478 | E 0.352 | V -0.27 | S 0.086
G33: Q -0.212 | Y -0.96 | T -0.892 | L -1.08 | C -0.791 | P -0.393 | D -0.721 | E -0.856 | H -0.536 | S -0.75 | K -0.85 | I -1 | F -0.934 | R -0.835 | A -0.555 | M -0.792
V24: A -0.728 | M -0.851 | G -0.753 | N -0.581 | I -0.545 | F -0.92 | L -0.361 | K -0.846 | S -0.681 | Y -0.767 | T -0.625 | R -0.931 | C -0.337
S34: Q 0.057 | V -0.084 | F -0.387 | Y -0.373 | N 0.107 | L -0.253 | P 0.133 | T -0.139 | H 0.039 | W -0.562 | A -0.079 | C -0.431 | R -0.038 | M -0.188 | D -0.015 | E 0.019 | K 0.09 | I -0.171
E45: F -0.878 | Q -0.767 | G -0.961 | C -0.763 | H -1.17 | A -0.415 | D -0.991 | M -0.893 | L -0.883
A27: C -0.289 | Q 0.016 | F -0.437 | T -0.18 | K -0.483 | G -0.739 | I -0.166 | D -0.221 | Y -0.144 | P -0.868 | S -0.106 | E 0.137 | V -0.662 | N -0.74 | W 0.053 | L -0.315
T39: C -1.07 | V -0.113 | M -0.147 | Q 0.13 | Y -0.447 | R -0.096 | E 0.255 | K 0.052 | D 0.118 | G -0.13 | L -0.242 | I -0.312 | W -0.393 | S -0.065 | P -0.387
